Assay results reported in US20230136228A1 (LAMKAP BIO ALPHA, published 2023).

Experiments:
[1] = molecular target: T1, human CEACAM5 (carcinoembryonic antigen, CEA), cell surface (human, UniProt P06731 35-685); assay: flow cytometry, CEA positive cells
T1 construct: whole, on cells; also called CD66e
T1 sequence (looked up): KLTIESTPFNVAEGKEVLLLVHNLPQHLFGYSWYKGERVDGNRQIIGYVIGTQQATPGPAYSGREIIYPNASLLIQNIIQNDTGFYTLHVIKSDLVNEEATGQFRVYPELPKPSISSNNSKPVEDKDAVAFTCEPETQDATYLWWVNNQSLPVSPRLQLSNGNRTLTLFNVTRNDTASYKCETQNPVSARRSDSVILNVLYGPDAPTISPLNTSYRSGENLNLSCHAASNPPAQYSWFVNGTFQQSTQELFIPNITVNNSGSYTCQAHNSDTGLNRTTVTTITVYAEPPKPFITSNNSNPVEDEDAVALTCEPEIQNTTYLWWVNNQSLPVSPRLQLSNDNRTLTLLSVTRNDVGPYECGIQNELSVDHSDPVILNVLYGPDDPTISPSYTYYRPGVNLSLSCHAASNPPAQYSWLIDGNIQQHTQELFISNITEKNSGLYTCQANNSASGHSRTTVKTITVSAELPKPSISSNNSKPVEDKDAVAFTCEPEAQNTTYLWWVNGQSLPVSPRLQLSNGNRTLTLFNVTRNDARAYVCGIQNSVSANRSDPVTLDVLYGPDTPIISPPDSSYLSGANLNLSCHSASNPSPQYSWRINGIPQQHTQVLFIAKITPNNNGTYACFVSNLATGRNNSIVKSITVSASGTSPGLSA

[2] = molecular target: T1, human CEACAM5 (carcinoembryonic …); assay: flow cytometry, MFI on transfected PEAK cells divided by MFI on WT PEAK cells
Method in brief: (§1)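 PEAK cells transfected with CEACAMs were stained for 15 min at 4 °C with antibody across 30 pM-500 nM, then with anti-human IgG secondary, followed by TOPRO-3 viability staining and flow cytometry. The value is the MFI on transfected cells divided by the MFI on non-transfected WT PEAK cells.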

human CEACAM3 = molecular target: T2, human CEACAM3 (human, UniProt P40198 35-252); assay: as above
T2 construct: whole, on cells
T2 sequence (looked up): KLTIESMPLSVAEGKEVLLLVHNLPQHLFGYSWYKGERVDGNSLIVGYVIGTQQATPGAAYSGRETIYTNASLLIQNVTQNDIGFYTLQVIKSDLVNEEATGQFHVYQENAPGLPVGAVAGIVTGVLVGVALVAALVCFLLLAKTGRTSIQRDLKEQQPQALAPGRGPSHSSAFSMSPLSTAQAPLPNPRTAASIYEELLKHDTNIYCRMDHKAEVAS
Method in brief: as §1

human CEACAM4 = molecular target: T3, human CEACAM4 (human, UniProt O75871 36-244); assay: as above
T3 construct: whole, on cells
T3 sequence (looked up): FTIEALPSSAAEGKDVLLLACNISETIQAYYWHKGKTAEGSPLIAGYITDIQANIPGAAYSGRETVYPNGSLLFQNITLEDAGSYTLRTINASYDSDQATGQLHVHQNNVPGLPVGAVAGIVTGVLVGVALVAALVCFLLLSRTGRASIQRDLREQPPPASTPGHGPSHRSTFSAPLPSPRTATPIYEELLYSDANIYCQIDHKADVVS
Method in brief: as §1

human CEACAM6 = molecular target: T4, human CEACAM6 (human, UniProt P40199 35-320); assay: as above
T4 construct: whole, on cells; also called CD66c
T4 sequence (looked up): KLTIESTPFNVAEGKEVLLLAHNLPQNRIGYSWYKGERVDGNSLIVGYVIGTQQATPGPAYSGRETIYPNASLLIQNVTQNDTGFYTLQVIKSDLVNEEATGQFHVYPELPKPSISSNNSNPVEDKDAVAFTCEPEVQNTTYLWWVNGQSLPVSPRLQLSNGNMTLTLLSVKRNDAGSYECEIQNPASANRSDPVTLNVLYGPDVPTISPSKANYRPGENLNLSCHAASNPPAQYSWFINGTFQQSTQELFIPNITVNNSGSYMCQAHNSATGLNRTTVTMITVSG
Method in brief: as §1

human CEACAM8 = molecular target: T5, human CEACAM8 (human, UniProt P31997 35-320); assay: as above
T5 construct: whole, on cells
T5 sequence (looked up): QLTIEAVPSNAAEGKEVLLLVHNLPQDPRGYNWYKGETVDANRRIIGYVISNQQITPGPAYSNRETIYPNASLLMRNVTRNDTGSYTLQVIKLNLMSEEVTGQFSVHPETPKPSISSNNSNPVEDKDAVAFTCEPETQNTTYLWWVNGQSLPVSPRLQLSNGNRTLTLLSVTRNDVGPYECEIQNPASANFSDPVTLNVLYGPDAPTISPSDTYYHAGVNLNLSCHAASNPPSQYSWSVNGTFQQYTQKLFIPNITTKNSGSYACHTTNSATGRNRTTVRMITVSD
Method in brief: as §1

Binder | binding higher than TCB2014 (at 200 nM) [1] [%] | Factor to PEAK WT [2] [fold] | Factor to PEAK WT (human CEACAM3) [fold] | Factor to PEAK WT (human CEACAM4) [fold] | Factor to PEAK WT (human CEACAM6) [fold] | Factor to PEAK WT (human CEACAM8) [fold]
AB72L3-1/N (bispecific antibody, human IgG1, kappa, lambda, L234A L235A, Kappa-lambda body, lead optimization wave 2) heavy: EVQLVESGGGLVQPGGSLKLSCAASGFTFNTYAMNWVRQAPGKGLEWVGRIRSKYNNYATYYADSVKDRFTISRDDSKNTAYLQMNSLKTEDTAVYYCVRHGNFGNSYVSWFAYWGQGTLVTVSSASTKGPSVFPLAPSSKSTSGGTAALGCLVKDYFPEPVTVSWNSGALTSGVHTFPAVLQSSGLYSLSSVVTVPSSSLGTQTYICNVNHKPSNTKVDKRVEPKSCDKTHTCPPCPAPEAAGGPSVFLFPPKPKDTLMISRTPEVTCVVVDVSHEDPEVKFNWYVDGVEVHNAKTKPREEQYNSTYRVVSVLTVLHQDWLNGKEYKCKVSNKALAAPIEKTISKAKGQPREPQVYTLPPSREEMTKNQVSLTCLVKGFYPSDIAVEWESNGQPENNYKTTPPVLDSDGSFFLYSKLTVDKSRWQQGNVFSCSVMHEALHNHYTQKSLSLSPG light 1: EIVLTQSPATLSLSPGERATLSCRASQSVNSNLNWYQQKPGQAPRLLIYHSTNRPRGIPARFSGSGSGTDFTLTISSLEPEDFAVYYCQQFDYFKEYNTFGQGTKVEIKRTVAAPSVFIFPPSDEQLKSGTASVVCLLNNFYPREAKVQWKVDNALQSGNSQESVTEQDSKDSTYSLSSTLTLSKADYEKHKVYACEVTHQGLSSPVTKSFNRGEC light 2: QTVVTQEPSLTVSPGGTVTLTCRSSTGAVTTSNYANWFQQKPGQAPRGLIGGTNKRAPGTPARFSGSLLGGKAALTLSGAQPEDEAEYYCALWYKQRWVFGGGTKLTVLGQPKAAPSVTLFPPSSEELQANKATLVCLISDFYPGAVTVAWKADSSPVKAGVETTTPSKQSNNKYAASSYLSLTPEQWKSHRSYSCQVTHEGSTVEKTVAPTECS | ≥ 40 | 85.3 | 1 | 0.8 | 1.2 | 13.1
AB73L3-1/N (bispecific antibody, human IgG1, kappa, lambda, L234A L235A, Kappa-lambda body, lead optimization wave 2) heavy: EVQLVESGGGLVQPGGSLKLSCAASGFTFNTYAMNWVRQAPGKGLEWVGRIRSKYNNYATYYADSVKDRFTISRDDSKNTAYLQMNSLKTEDTAVYYCVRHGNFGNSYVSWFAYWGQGTLVTVSSASTKGPSVFPLAPSSKSTSGGTAALGCLVKDYFPEPVTVSWNSGALTSGVHTFPAVLQSSGLYSLSSVVTVPSSSLGTQTYICNVNHKPSNTKVDKRVEPKSCDKTHTCPPCPAPEAAGGPSVFLFPPKPKDTLMISRTPEVTCVVVDVSHEDPEVKFNWYVDGVEVHNAKTKPREEQYNSTYRVVSVLTVLHQDWLNGKEYKCKVSNKALAAPIEKTISKAKGQPREPQVYTLPPSREEMTKNQVSLTCLVKGFYPSDIAVEWESNGQPENNYKTTPPVLDSDGSFFLYSKLTVDKSRWQQGNVFSCSVMHEALHNHYTQKSLSLSPG light 1: EIVLTQSPATLSLSPGERATLSCRASQSVNSNLNWYQQKPGQAPRLLIYHSNNRPHGIPARFSGSGSGTDFTLTISSLEPEDFAVYYCQQFDYFREYNTFGQGTKVEIKRTVAAPSVFIFPPSDEQLKSGTASVVCLLNNFYPREAKVQWKVDNALQSGNSQESVTEQDSKDSTYSLSSTLTLSKADYEKHKVYACEVTHQGLSSPVTKSFNRGEC light 2: QTVVTQEPSLTVSPGGTVTLTCRSSTGAVTTSNYANWFQQKPGQAPRGLIGGTNKRAPGTPARFSGSLLGGKAALTLSGAQPEDEAEYYCALWYKQRWVFGGGTKLTVLGQPKAAPSVTLFPPSSEELQANKATLVCLISDFYPGAVTVAWKADSSPVKAGVETTTPSKQSNNKYAASSYLSLTPEQWKSHRSYSCQVTHEGSTVEKTVAPTECS | ≥ 40 | 70.8 | 0.9 | 0.7 | 1 | 0.8
